Measurements published in PMC10660547 (Antibodies, 2023).

Key:
[1] = molecular target: T1, Phl p 7 (with a C-terminal tryptophan residue, biotinylated) (Phleum pratense (timothy grass), UniProt O82040, biotin (EZ-Link Maleimide-PEG2-Biotin)); experiment: SPR; biotinylated Phl p 7 immobilised on an SA chip, 50 nM HAPPID1 Fab captured by it, aδNb072 flowed over (200 nM to 3 nM); 25 °C, 10 mM HEPES pH 7.4, 150 mM NaCl, 0.05% P20, 5 mM CaCl2; conditions: both partners purified
T1 construct: Phl p 7, polcalcin family 2-EF hand protein of timothy grass (Phleum pratense) pollen; C-terminal tryptophan residue added to aid spectrophotometric detection; also called biotinylated Phl p 7; timothy grass pollen allergen Phl p 7; source: E. coli BL21(DE3), purified (HisTrap FF Crude, SEC Superdex 75)
T1 sequence (O82040 whole entry, looked up): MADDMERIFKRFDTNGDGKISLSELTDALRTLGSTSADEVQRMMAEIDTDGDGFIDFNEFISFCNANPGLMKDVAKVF

[2] = molecular target: anti-IgD nanobody 072 (not stated (a llama and an alpaca were immunised)); experiment: SPR; aδNb072 (100 nM) captured by an anti-His-tag antibody on a CM5 chip; Fab flowed over, two-fold dilution series 200 nM to 3 nM; Biacore T200, 25 °C, 10 mM HEPES pH 7.4, 150 mM NaCl, 0.05% P20; KD from koff/kon
Chain of anti-IgD nanobody 072 (not stated (a llama and an alpaca were immunised)) (heavy, as listed by the source): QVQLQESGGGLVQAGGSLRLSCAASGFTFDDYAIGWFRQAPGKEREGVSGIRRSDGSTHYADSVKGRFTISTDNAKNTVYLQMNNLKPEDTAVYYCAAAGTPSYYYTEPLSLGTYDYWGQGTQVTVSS

B1: HAPPID1 Fab with a C-terminal glycine4-serine linker and SpyTag on the heavy chain (Fab, V domains shown)
VH: QVQLVQSGAEVRNPGASVKVSCKASGYTFTSYAIHWVRQAPGHRLEWVGRINTDNGNTKYSQKFHGRVALSRDTSASTTYMDLSSLNSEDTAVYYCARAFYYSSGVMFDSWGQGALVTVSS
VL: QSALTQPPSVSGAPGQRVSISCTGGSSNFGAGYDVHWYQQLPATAPKLLIYGNNNRPSGVPDRFSGSKSGTSASLAITGLQAEDEGDYFCQSFDTSLSGWIFGGGTKLTVL
notes: as the heavy chain of m2 (VH of clone 102.1F10 with human Cδ1); as the light chain of m2 (lambda light chain of the HAPPI1 antibodies); Derived from pVITRO1-HAPPID1; also called SpyTagged HAPPID1 Fab; not shown: glycine4-serine linker and SpyTag, C-terminal, kept
Does B1 bind [1]?
Result: binds

And the Kd [2]?
The Kd was 1.4 nM.

What about the koff [2] of the same binder?
Its koff is 0.000822 s⁻¹.

And the kon [2]?
Its kon is 586000 M⁻¹ s⁻¹.

B2: HAPPIE1 Fab (SpyTagged) (Fab, V domains shown)
VH: B1 VH
VL: B1 VL
For B2, which Kd [2] is on record?
The Kd was 3.64 nM.

And the koff [2]?
Its koff is 0.000829 s⁻¹.

What about the kon [2] of the same binder?
The kon was 228000 M⁻¹ s⁻¹.
